From the nanobody polyreactivity screen of Harvey et al. (2022)

assay: yeast display, Sf9 membrane polyspecificity reagent, FACS + sequencing; frameworks hold sequencing errors
Summary of the method: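 Nanobodies came from a synthetic yeast display library in Saccharomyces cerevisiae BJ5465, induced with galactose for 36–48 hours and stained for 1 hour at 4 °C with 10% biotinylated, detergent-solubilized Sf9 membrane reagent. Cells were enriched on streptavidin microbeads and then FACS-sorted, with low and high (top ~1%) gates set on anti-HA fluorescence for expression and streptavidin fluorescence for reagent binding. Each polyreactivity label reflects the gate a clone came from. Genes were amplified by colony PCR, sequenced by MiSeq 2 × 250 and filtered by CDR length.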

Row | Sequence | polyreactivity (PSR sort gate)
1 | QVQLEESGGGLVQAGGSLRLSCAASGRIIYSNGMGWYRQAPGKERELVAAISSGGSTYYADSVKGRFTISRDNAKNTVYLQMNSLKPEDTAVYYCAADIDYERDRYDYWGQGTQVTVSS | low polyreactivity
2 | QVQLEESGGGLVQAGGSLRLSCAASGRISAKYAMGWYRKAPGKERELVASISWSGGSTYYADSVKGRFTISRDNAKNTVYLQMNSLKPEDTAVYYCAADLTQQRGVRGMDYWGQGTQVTVSS | low polyreactivity
3 | QVQLEESGGGLVQAGGSLRLSCAASGRTFAFNAMGWYRPAPGKVRELVAVITSRTTRTYYADSVKGRFTISRDNAKNTVYLQMNSLKPEDTAVYYCAAGFRRQSIRFDYWGQGTQVTVSS | high polyreactivity
4 | QVQLEESGGGLVQAGGSLRLSCAASGRTFDVYAMGWYRQAPGKEREFVAAINWSSSSTYYADSVKGRFTISRDNAKNTVYLQMNSLKPEDTAVYYCAARYKRYTRFDYWGQGTQVTVSS | high polyreactivity
5 | QVQLEESGGGLVQAGGSLRLSCAASGRTFKYYAMGWYIQAPGKERELVAAISWSGGDTYYADSVKGRFTISRDNAKNTVYLQMNSLKQEDTAVYYCAKYPWYRYPSYEYWGQGTQVTVSS | high polyreactivity
6 | QVQLEESGGGLVQAGGSLRLSCAASGRTFRINDMGWYRQAPGKERELVATINSTGSTNYADSVKGRFTISRDNAKNTVYLQMNSLKPEDTAVYYCNAYLYYYRYHYNYWGQGTQVTVSS | low polyreactivity
7 | QVQLEESGGGLVQAGGSLRLSCAASGRTFSYYSMGCYRKAPGKERELVAAITSGGRTYYADSVKGRFTISRDNAKNTVYLQINSLKPEDTAVYYCAARWYARSLTRFNYWGQGTQVTVSS | high polyreactivity
8 | QVQLEESGGGLVQAGGSLRLSCAASGRTFYGKAMGWYRNAPGKEWEFVASISYSGTTTYYADSVKGRFTISRDNAKNTVYLKMNSLKPEDTAVYYCAVESYPTDYGPRFGSWGQGTQVTVSS | low polyreactivity
9 | QVQLEESGGGLVQAGGSLRLSCAASGRTFYSYAMGWYRQAPGKEREWVAAITSDGGTYYADSVKGRFTISRDNAKNTVYLQMNSLKPEDTAVYYCAAELYYWYYYWGQGTQVTVSS | low polyreactivity
10 | QVQLEESGGGLVQAGGSLRLSCAASGRTFYVNAMGWYRQATGKERELVAAISWSGGSTYYADSVKGRFTISRDNAKNTVYLQINSLKPEDTAVYYCAAEDIEDYEYWGQGTQVTVSS | low polyreactivity
11 | QVQLEESGGGLVQAGGSLRLSCAASGSIFALYAMGWYRQAPGKERELVAAISYRGGRTYYADSVKARFTISRDYAKNTVYLQMNILKPEDTAVYYCATDFPCKFDFWGQGTQVTVSS | low polyreactivity
12 | QVQLEESGGGLVQAGGSLRLSCAASGSIFDSYARGWNSQAPVQERELVAAISRSGGRTYYADSVKGRFTISRDNAKNTVYLQMNSLKPEDTAVYYCNVVLGWWAPYFYTSGDYWGQGTQVTVSS | high polyreactivity
13 | QVQLEESGGGLVQAGGSLRLSCAASGSIFGNAMGWYRQAPGKEREFVAAISSSGSSTYYADSVKGRFTISRDNAKNTVYLQMNSLKPEDTAVYYCAKRRRSADPKYDYWGQGTQVTVSS | high polyreactivity
14 | QVQLEESGGGLVQAGGSLRLSCAASGSIFQSYDMGWYRQAPGKERELVAAISWSGSTTYYADSVKGRFTISRDNAKNTVYLQMNSLKPEDTAVYYSAVDSNPPDWWAVIYGYWGQGTQVTVSS | low polyreactivity
15 | QVQLEESGGGLVQAGGSLRLSCAASGSIFRSNAMGWYRQAPGKERELVAAISSSGGSTYYADSVKGRFTISRDKAKNTVYLQMNSLKPEDTAVYYCAARPSGRGYYLLGYWGQGTQVTVSS | low polyreactivity
16 | QVQLEESGGGLVQAGGSLRLSCAASGSIFSQYAMGWYRQAPGKERELVASITWRGGRTYYADSVKGRFTISRDNAKNTVYLQMNSLKPEDTAVYYCNRVYGAHHYYYGIGTYDYWGQGTQVTVSS | high polyreactivity
17 | QVQLEESGGGLVQAGGSLRLSCAASGSIFSTYAMGWYRQAPGKERELVSAINSGDSTSYADSVKGRFTISRDNAKNTVYLQRNSLKPEDTAVYYCAAKTGGYWYLRRTGRYESWGQGTQVTVSS | low polyreactivity
18 | QVQLEESGGGLVQAGGSLRLSCAASGSIFTANAMGWYRQAHGKERELVAAINRSGGRTYADSVKGRFTISRDNAKNTVYLQMNSLKPEDTAVYYCAAVGHVYKGHDFGYWGQGTQVTVSS | low polyreactivity
19 | QVQLEESGGGLVQAGGSLRLSCAASGSIFTDYAMGSYGQAPGKERELVAAITSGGSTNYADSVKGRFTISRDNAKNTVYLQMNSLKPEDTAVYYCNADDYWLDSWSSDLWYDYWGQGTQVTVSS | low polyreactivity
20 | QVQLEESGGGLVQAGGSLRLSCAASGSIFVRNAMGWYRQAPGKERELVAAISRSGSSTYYADSVKGRFTISRDNAKNTVYLQMNSLKPEDTAVYYCAKRRPALRWIYYYWGQGTQVTVSS | high polyreactivity
21 | QVQLEESGGGLVQAGGSLRLSCAASGSIFVSVTMGWYRQAPGKERELVASIGRGSTTNHADSVKGRFTISRDNAKNIVYLLMNSLKPEDTAVYYCAALESYGKYHGYWGQGTQVTVSS | low polyreactivity

Row | Sequence | polyreactivity (PSR sort gate)
22 | QVQLEESGGGLVQAGGSLRLSCAASGSIFYPYAMGWYRQAPGKERELVAAISGRGGNTYYADSVKGRFTISRDIAKNTVYLQMNSLKPEDSAVYDCAADRYYWSLYGYDYWGQGTQVTVSA | high polyreactivity
23 | QVQLEESGGGLVQAGGSLRLSCAASGSIFYVNAMGWYRQAPGKERELVAAITSSGGSTYYADSVKGRFTISRDNAKNTVYLQMNSLIPEDTAVYYCAVDVYPGVFVEEGEYWGQGTQVTVSS | low polyreactivity
24 | QVQLEESGGGLVQAGGSLRLSCAASGSIFYYNAMGWYRQAPGTERELVAAIRRSGGRTYYADSVKGRFTISRDNAKNSVYLQMNSLKPEDTAVYYCAAVHYDRVTCQVDNDYWGQGTQVTVSS | high polyreactivity
25 | QVQLEESGGGLVQAGGSLRLSCAASGSIIYENTMGWYRQAPGKERELVAAISASGGSTEYADSVKGRFTISRDNEKNTVYLQMKSLKPEDTGVYYCAADACAFYFGGDYWGLGTQVTVSS | low polyreactivity
26 | QVQLEESGGGLVQAGGSLRLSCAASGSMFTRYAKGWYRQAPWKERELVAAISTSGGSTYYADSVKGRFTISRDNAKNTVYLQMTSLKPEDTAVYYCAADDQRRSGYYSWGQGTQVTVSS | high polyreactivity
27 | QVQLEESGGGLVQAGGSLRLSCAASGSNAMGWYRQAPGKERELVAVITSRGGSTYYADSVKGRFTISRDNAKNTVYLQMNSLKPEDTAVYYCAKAWYVRGTWSVHVRYGYWGQGTQVTVSS | high polyreactivity
28 | QVQLEESGGGLVQAGGSLRLSCAASGSTFESYAMGWYRQAPGKERELVATITRRSTRTYYADSVKGRFTISRDNAKNTVYLQMNSLKPEDTAVYYCAARVYTVRAIGMGYWGQGTQVTVSS | high polyreactivity
29 | QVQLEESGGGLVQAGGSLRLSCAASGSTFLLNAMGWYRQAPGKERELVAAITSSGGTNYADSVKGRFTISRDNAKNTVYLQMNSLKPEDTAVYNCYTRYSPGYQGTEVDYWGQGTQVTVSS | low polyreactivity
30 | QVQLEESGGGLVQAGGSLRLSCAASGSTFNYYAMGWYRTATGKERELVAAITGSGTSTYYADSVKGRFTISRDNAKNTVYLQMNSLKPEDTAVYYCNARYRPRQRPEGGYWGQGTQVTVSS | high polyreactivity
31 | QVQLEESGGGLVQAGGSLRLSCAASGSTFQRYAIGWYRQAPGKERELVAAISYRAGRRYYADSVKGRFTISRDNAKNTVYLQMNSLKPEDTAVYYCAAKNQGYQYDYWGQGTQVTVSS | high polyreactivity
32 | QVQLEESGGGLVQAGGSLRLSCAASGSTFSDNAMGWYRQAPGKERELVAAISTGTSTYADSVKGRFTISRDNAKNTVYLQMNSLKPEDTAVYYCAADVGIRPLNYHPYNYWGQGTQVTVSS | low polyreactivity
33 | QVQLEESGGGLVQAGGSLRLSCAASGSTFSGYAMGWYRQATGKDRELVAAITSSGGRTYYADSVKGRFTISRDKAKNTVYLQMNSLKPEDTAVYYCAALYYHEYDYWGQGTQVTVSS | low polyreactivity
34 | QVQLEESGGGLVQAGGSLRLSCAASGSTFTPYAMGWYRQAPGKERELVAAISWSGGSTYYADSVKGRFTISRDNAKNTVYLQMNSLKPEDTAVYYCAATYSYRTRAWGWGNYDYWGQGTQVTVSS | high polyreactivity
35 | QVQLEESGGGLVQAGGSLRLSCAASGSTLNYYAMGWYRQAPGKERELVAAITWSGGSTSYADSVKGRFTISRDKAKNTVYLQMNSLKQEDTAVYYCATDFPTVQLYDTDWLSSDMGYWGQGTQVTVSS | low polyreactivity
36 | QVQLEESGGGLVQAGGSLRLSCAASGSTSLKNAMGWYRQAPGKERELVAAISSGGSTYYADSVKGRFTISRDNAKNTVYLQINSLKPEDTAVYYCAAKYLRGLGYWGQGTQVTVSS | high polyreactivity
37 | QVQLEESGGGLVQAGGSLRLSCAASVSTFRLYVMGGYRQAPGKERQLVAAIDWSGGSTYYADSVKGRFTISRDNAKNTVYLQMNSLKPEDTAVYYCAADYSVASPDGPDVIYDYWGQGTQVTVSS | low polyreactivity
38 | QVQLEESGGGLVQAGGSLRLSCAATGFIFRGYAMGWYRPAPGKERELVAAITSSGGDTYYADSVKGRFTISRDNAKNTVYLQMNSLKPEDTAVYYCNARDYASGTEGDYWGQGTQVTVSS | low polyreactivity
39 | QVQLEESGGGLVQAGGSLRLSCAATGSTFGYAMGWYSQATGKEGEWVAALTSTGGSTYYADSLKGRFTISRDKAKNTVDLQMNSLKPYDTAVYYCAADAYWIRSRFLYRIRYNYWGQGTQVTVSS | high polyreactivity
40 | QVQLEESGGGLVQAGGSLRLSCAATGSTIPYYAMGWYRQAPGKERELVARITSGDRTFYADSVKGRFTISRDNAKNTVYLQMNSLKPEDTAVYFCNAQVHYYSWYGYWGQGTQVTVSS | high polyreactivity
41 | QVQLEESGGGLVQAGGSLRLSCAAYGFTIVGNTMGWYRQAPGKERELVASINTNGGSTYYADSVKGRFTISRDNAKNTVYLQMNSLKPEDTAVYYCNARSWYPYDYWGQGTQVTVSS | low polyreactivity
